This note sets out measurements from article PMC6877644.

Series [1] addresses JASPer (untagged, in JJ-complex);JIL-1 (Drosophila melanogaster;Drosophila melanogaster) (UniProt Q9V3I5). The series can be described thus: nucleosome library pull-down with sequencing. The note with it: H3K36me3; DNA EMSA: 50 mM HEPES pH 7.6, 50 mM NaCl, 10% glycerol, 2 mM MgCl2, 10% BSA, RT 10 min; RNA EMSA: 25 mM HEPES pH 7.6, 100 mM KCl, 3 mM MgCl2, 1 mM DTT, 5% …; scale: fold enrichment over unmodified nucleosome.

The target of series [2] is T1, JASPer (Drosophila melanogaster) (UniProt Q9VAA9).
T1 sequence: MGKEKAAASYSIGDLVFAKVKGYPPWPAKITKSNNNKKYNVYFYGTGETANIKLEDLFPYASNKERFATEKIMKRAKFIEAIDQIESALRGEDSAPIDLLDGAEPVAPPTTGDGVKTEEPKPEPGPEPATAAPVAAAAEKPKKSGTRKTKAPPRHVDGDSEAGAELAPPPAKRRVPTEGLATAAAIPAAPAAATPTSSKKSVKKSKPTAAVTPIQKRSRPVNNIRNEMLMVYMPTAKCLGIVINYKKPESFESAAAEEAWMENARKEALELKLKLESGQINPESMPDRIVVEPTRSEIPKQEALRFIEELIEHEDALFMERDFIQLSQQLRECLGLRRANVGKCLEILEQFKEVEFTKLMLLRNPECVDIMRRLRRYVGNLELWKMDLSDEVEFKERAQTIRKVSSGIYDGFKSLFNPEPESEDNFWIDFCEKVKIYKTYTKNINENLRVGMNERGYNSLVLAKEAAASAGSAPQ
The experiment in a line: nucleosome library pull-down with sequencing. The note with it: H3K36me3; scale: fold enrichment over unmodified nucleosome. Also noted: dose or concentration left out as unconfirmed.

Series [3] deals with JASPer-FLAG (D. melanogaster). The experiment in a line: pull-down; 1.5 pmol FLAG-tagged JASPer or JJ-complex pre-coupled to FLAG-M2 beads, incubated with 1.38 pmol library of 115 DNA-barcoded nucleosome types (12 fmol each) in 200 µL 20 mM Tris/Cl pH 7.5, 50 mM NaCl, 5 mM EDTA, 0.1% TWEEN 20, 4 h at 4 °C; read out by sequencing of the barcodes, relative to the unmodified nucleosome set to 1.

In series [4] the target is JASPer-JIL-1 (JJ)-complex (FLAG-JIL-1 and untagged JASPer) (D. melanogaster) (UniProt Q9V3I5). The description is as above.
Chain of JASPer-JIL-1 (JJ)-complex (FLAG-JIL-1 and untagged JASPer) (D. melanogaster) (Q9V3I5 whole entry, one chain of several): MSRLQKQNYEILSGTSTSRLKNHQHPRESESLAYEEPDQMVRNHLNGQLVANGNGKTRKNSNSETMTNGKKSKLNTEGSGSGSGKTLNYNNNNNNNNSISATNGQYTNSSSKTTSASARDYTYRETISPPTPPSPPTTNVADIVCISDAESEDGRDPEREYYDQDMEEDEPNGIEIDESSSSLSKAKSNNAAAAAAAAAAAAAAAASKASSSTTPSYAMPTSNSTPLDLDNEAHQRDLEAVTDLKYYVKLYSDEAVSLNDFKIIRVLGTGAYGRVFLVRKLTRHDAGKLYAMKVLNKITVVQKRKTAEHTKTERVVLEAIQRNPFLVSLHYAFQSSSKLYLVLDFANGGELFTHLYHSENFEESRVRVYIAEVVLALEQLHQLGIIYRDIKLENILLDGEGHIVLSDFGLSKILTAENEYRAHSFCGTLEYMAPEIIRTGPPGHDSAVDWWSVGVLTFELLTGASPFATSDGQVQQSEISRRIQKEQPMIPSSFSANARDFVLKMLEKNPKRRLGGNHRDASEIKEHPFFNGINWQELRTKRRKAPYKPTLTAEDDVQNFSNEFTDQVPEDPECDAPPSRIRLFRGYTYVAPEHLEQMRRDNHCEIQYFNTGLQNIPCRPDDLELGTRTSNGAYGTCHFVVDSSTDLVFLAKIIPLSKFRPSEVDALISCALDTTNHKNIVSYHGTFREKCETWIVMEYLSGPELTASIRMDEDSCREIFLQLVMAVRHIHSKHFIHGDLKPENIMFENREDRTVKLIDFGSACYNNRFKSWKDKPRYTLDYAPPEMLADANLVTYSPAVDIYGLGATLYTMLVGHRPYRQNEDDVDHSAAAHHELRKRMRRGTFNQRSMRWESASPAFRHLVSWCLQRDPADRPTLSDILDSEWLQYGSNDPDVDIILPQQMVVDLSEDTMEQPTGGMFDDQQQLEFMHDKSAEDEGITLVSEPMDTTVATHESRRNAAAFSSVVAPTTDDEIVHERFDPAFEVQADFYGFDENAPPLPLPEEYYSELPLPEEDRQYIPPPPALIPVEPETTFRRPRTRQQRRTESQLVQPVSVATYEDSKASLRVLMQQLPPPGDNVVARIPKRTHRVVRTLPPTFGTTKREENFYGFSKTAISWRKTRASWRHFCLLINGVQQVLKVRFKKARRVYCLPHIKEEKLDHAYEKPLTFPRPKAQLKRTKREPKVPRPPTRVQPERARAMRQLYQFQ

Chain of JASPer (untagged, in JJ-complex);JIL-1 (Drosophila melanogaster;Drosophila melanogaster) (Q9V3I5 whole entry, looked up, one chain of several): as the sequence (Q9V3I5 whole entry, one chain of several) above

In the case of “H3K36me3 mononucleosome (barcoded library)”, the binding signal in series [1] turned out to be 70; in series [2], 40.

Consider “nucleosome bearing the single H3K36me3 modification (complex)”, for which, in series [3], the fold enrichment relative to the unmodified nucleosome came to 40 fold. Further, in series [4], the fold enrichment over the unmodified nucleosome came to 70 fold.
